Measurements taken from paper PMC6459857.

Experiments:
Cdk2 [1] = biological target: Cdk2 (UniProt P24941); assay: single-molecule FRET, dyes at C54 and C93; settings: reference: unphosphorylated p27-C54-93; sites Y88
Cdk2 [2] = biological target: Cdk2 (UniProt P24941); assay: single-molecule fluorescence anisotropy, BODIPY at C93; settings: reference: unphosphorylated p27-C93; sites Y88

Substance	other: fraction in released minor state (Cdk2 [1])	other: fraction in flexible state (Cdk2 [2])
p27Kip1 (p27) 1-198 (from UniProt P46527) pY88-p27-C54-93	weaker; reference 17	
p27Kip1 (p27) 1-198 (from UniProt P46527) pY88-p27-C93		weaker; reference 33
